Laboratory results reported in PMC4529235, “The Human Acid-Sensing Ion Channel ASIC1a: Evidence for a Homotetrameric Assembly State at the Cell Surface” (PLoS ONE, 2015).
Substitutions are numbered along the chain they refer to. Names may count otherwise.

Assays:
[1] = molecular target: the molecule itself; assay: cross-linking; 2 mM BMOE at the cell surface of intact Xenopus oocytes, cell-surface biotinylation, streptavidin beads, SDS-PAGE under reducing conditions, anti-His-tag western blot (ΔCCt background)
[2] = molecular target: the molecule itself; assay: cross-linking; intracellular BMOE (2 mM, internal perfusion or injection) in Xenopus oocytes; SDS-PAGE under reducing conditions, anti-ASIC1a western blot
[3] = molecular target: the molecule itself; assay: cross-linking; BMOE (0.5 or 2 mM) at the cell surface of Xenopus oocytes and CHO cells before lysis, cell-surface biotinylated fractions, SDS-PAGE under reducing conditions, anti-ASIC1a western blot; band intensities pooled over oocytes and CHO cells

B1: ASIC1a-ΔCCt (H8-hASIC1a-C466A/C471A/C497A/C528Stop) (natural protein, human, UniProt P78348-2 1-527, looked up)
chain: MELKAEEEEVGGVQPVSIQAFASSSTLHGLAHIFSYERLSLKRALWALCFLGSLAVLLCVCTERVQYYFHYHHVTKLDEVAASQLTFPAVTLCNLNEFRFSQVSKNDLYHAGELLALLNNRYEIPDTQMADEKQLEILQDKANFRSFKPKPFNMREFYDRAGHDIRDMLLSCHFRGEVCSAEDFKVVFTRYGKCYTFNSGRDGRPRLKTMKGGTGNGLEIMLDIQQDEYLPVWGETDETSFEAGIKVQIHSQDEPPFIDQLGFGVAPGFQTFVACQEQRLIYLPPPWGTCKAVTMDSDLDFFDSYSITACRIDCETRYLVENCNCRMVHMPGDAPYCTPEQYKECADPALDFLVEKDQEYCVCEMPCNLTRYGKELSMVKIPSKASAKYLAKKFNKSEQYIGENILVLDIFFEVLNYETIEQKKAYEIAGLLGDIGGQMGLFIGASILTVLELFDYAYEVIKHKLARRGKAQKEAKRSSADKGVALSLDDVKRHNPAESLRGHPAGMTYAANILPHHPARGTFEDFT
notes: human ASIC1a lacking the cysteines of the C-terminus; C528Stop removes the last residue; also called Ctrl; source: Xenopus laevis oocytes, cRNA injected; not shown: His8, N-terminal, kept
[1]
  stoichiometry N: 2

B2: G430C-ΔCCt (natural protein, human, UniProt P78348 1-527, looked up)
chain: B1 chain with G430C
notes: human ASIC1a, ΔCCt background (C528Stop removes the last residue) with G430C; source: Xenopus laevis oocytes, cRNA injected; not shown: His8, N-terminal, kept
[1]
  stoichiometry N: 4

B3: G433C-ΔCCt (natural protein, human, UniProt P78348 1-527, looked up)
chain: B1 chain with G433C
notes: human ASIC1a, ΔCCt background (C528Stop removes the last residue) with G433C; source: Xenopus laevis oocytes, cRNA injected; not shown: His8, N-terminal, kept
[1]
  stoichiometry N: 4

B4: Y426C-ΔCCt (natural protein, human, UniProt P78348 1-527, looked up)
chain: B1 chain with Y426C
notes: human ASIC1a, ΔCCt background (C528Stop removes the last residue) with Y426C; also called Y426C-CCt; source: Xenopus laevis oocytes, cRNA injected; not shown: His8, N-terminal, kept
[1]
  stoichiometry N: 4

B5: V74C-ΔCCt (natural protein, human, UniProt P78348 1-527, looked up)
chain: B1 chain with V74C
notes: human ASIC1a, ΔCCt background (C528Stop removes the last residue) with V74C; source: Xenopus laevis oocytes, cRNA injected; not shown: His8, N-terminal, kept
[1]
  stoichiometry N: 4

B6: wild type human ASIC1a (H8-ASIC1a) (natural protein, UniProt P78348-2 1-528, looked up)
chain: MELKAEEEEVGGVQPVSIQAFASSSTLHGLAHIFSYERLSLKRALWALCFLGSLAVLLCVCTERVQYYFHYHHVTKLDEVAASQLTFPAVTLCNLNEFRFSQVSKNDLYHAGELLALLNNRYEIPDTQMADEKQLEILQDKANFRSFKPKPFNMREFYDRAGHDIRDMLLSCHFRGEVCSAEDFKVVFTRYGKCYTFNSGRDGRPRLKTMKGGTGNGLEIMLDIQQDEYLPVWGETDETSFEAGIKVQIHSQDEPPFIDQLGFGVAPGFQTFVACQEQRLIYLPPPWGTCKAVTMDSDLDFFDSYSITACRIDCETRYLVENCNCRMVHMPGDAPYCTPEQYKECADPALDFLVEKDQEYCVCEMPCNLTRYGKELSMVKIPSKASAKYLAKKFNKSEQYIGENILVLDIFFEVLNYETIEQKKAYEIAGLLGDIGGQMGLFIGASILTVLELFDYAYEVIKHKLCRRGKCQKEAKRSSADKGVALSLDDVKRHNPCESLRGHPAGMTYAANILPHHPARGTFEDFTC
notes: ends with the terminal Cys (C528); Same construct expressed in two hosts; the printed band intensities pool oocytes and CHO cells; also called ASIC1a wt; hASIC1a; source: Xenopus laevis oocytes, cRNA injected; CHO-K1 cells, transfected; not shown: His8, N-terminal, kept
[2]
  stoichiometry N: 4

B7: ASIC1a G433C (with intact C-terminal cysteines) (natural protein, human, UniProt P78348-2 1-528, looked up)
chain: B6 chain with G433C
notes: human ASIC1a with G433C, C-terminal cysteines intact; The methods describe G433C only on the ΔCCt template; the results say that this G433C has intact C-terminal cysteines; source: Xenopus laevis oocytes, cRNA injected; CHO-K1 cells, transfected; not shown: His8, N-terminal, kept
[3]
  stoichiometry N: 4
